Measurements from paper PMC9980635 (mAbs, 2023).

Legend:
[1] = target: cynomolgus LAMP-1 extracellular domain (Macaca fascicularis, UniProt A0A2K5UUW0); assay: BLI
[2] = target: human LAMP-1 extracellular domain (Homo sapiens, UniProt P11279); assay: BLI
[3] = target: murine LAMP-1 extracellular domain (Mus musculus, UniProt P11438); assay: BLI
[4] = target: cynoLAMP1 presented on the surface of engineered cell lines (Macaca fascicularis, UniProt A0A2K5UUW0); assay: flow cytometry on cells

murine LAMP-1 extracellular domain, sequence (P11438 25-370): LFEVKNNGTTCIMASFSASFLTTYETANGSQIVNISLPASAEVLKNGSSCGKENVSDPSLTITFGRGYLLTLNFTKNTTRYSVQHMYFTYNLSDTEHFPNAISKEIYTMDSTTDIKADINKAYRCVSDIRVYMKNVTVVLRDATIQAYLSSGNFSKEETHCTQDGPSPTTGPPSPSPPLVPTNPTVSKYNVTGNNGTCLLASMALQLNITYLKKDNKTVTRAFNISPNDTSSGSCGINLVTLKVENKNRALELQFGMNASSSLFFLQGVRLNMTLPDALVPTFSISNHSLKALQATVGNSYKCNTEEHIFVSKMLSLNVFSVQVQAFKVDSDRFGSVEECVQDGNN
human LAMP-1 extracellular domain, sequence (P11279 29-382): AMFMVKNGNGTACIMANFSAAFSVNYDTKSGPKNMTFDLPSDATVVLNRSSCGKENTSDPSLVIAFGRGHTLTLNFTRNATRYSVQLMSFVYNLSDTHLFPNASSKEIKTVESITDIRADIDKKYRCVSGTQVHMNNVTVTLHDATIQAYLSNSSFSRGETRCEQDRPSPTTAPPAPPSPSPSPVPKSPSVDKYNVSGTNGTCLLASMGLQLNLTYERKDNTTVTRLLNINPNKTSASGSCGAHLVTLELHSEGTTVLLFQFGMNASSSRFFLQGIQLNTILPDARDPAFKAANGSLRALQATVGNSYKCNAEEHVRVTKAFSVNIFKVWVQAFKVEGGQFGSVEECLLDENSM

binding result [1]: no binding (tested: 200 nM)
Kd [2]: 12 nM
binding result [3]: no binding (tested: 200 nM)
binding result [4]: no binding
B1: mAb B (antibody, V domains shown)
VH: QVQLVQSGAEVKKPGSSVKVSCKASGYIFTNYNIHWVKKSPGQGLEWIGAIYPGNGDAPYSQKFQGKATLTADTSTSTTYMELSSLRSEDTAVYYCVRANWDVAFAYWGQGTLVTVSS
VL: DIQMTQSPSSLSASVGDRVTITCKASQDIDRYMAWYQDKPGKAPRLLIHDTSTLQSGVPSRFSGSGSGRDYTLTISNLEPEDFATYYCLQYDNLWTFGGGTKVEIK
